Consider 125 sequences from the supplement of paper PMC9112550, “Optimization of the antimicrobial peptide Bac7 by deep mutational scanning” (BMC Biology, 2022).

In this data set the test system is Escherichia coli TOP10. The data set is described as follows: shrunken log2 fold change of peptide-encoding DNA abundance (4.5 h post-induction vs induction); higher = less antimicrobial activity (less host growth inhibition). To be noted: time post-induction: 4.5 h; library: site-saturation at positions 5, 18, 19, 20.
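Note: peptides expressed intracellularly from a pBAD plasmid library in pooled LB shake-flask culture, induced with 0.3% L-arabinose, DNA abundance read by NGS, three biological replicates, DESeq2 with apeglm shrinkage.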

With RRIRHRPPRLPRPRPRPNSVPRP, the “shrunken log2 fold change” value was -0.00436.
For RRIRMRPPRLPRPRPRPYGTPRP the value was -0.411.
For RRIRDRPPRLPRPRPRPQTSPRP the value was 0.117; for RRIRNRPPRLPRPRPRPRRYPRP, 0.0725.
For RRIRCRPPRLPRPRPRPIVNPRP the value was -0.239; for RRIRKRPPRLPRPRPRPEDYPRP, 1.15; for RRIRHRPPRLPRPRPRPCPPPRP, -0.845.
Consider RRIRFRPPRLPRPRPRPMYAPRP, for which the “shrunken log2 fold change” value was -0.406.
For RRIRVRPPRLPRPRPRPHLMPRP the value was -0.36.
For RRIRSRPPRLPRPRPRPTERPRP the value was 0.142; for RRIRDRPPRLPRPRPRPTPMPRP, 0.234; for RRIRCRPPRLPRPRPRPPKHPRP, 0.203.
For RRIRDRPPRLPRPRPRPQISPRP the value was 0.141; for RRIRKRPPRLPRPRPRPADGPRP, 0.223; for RRIRIRPPRLPRPRPRPTFPPRP, -0.316.
Regarding RRIRARPPRLPRPRPRPPIIPRP, the “shrunken log2 fold change” value was -0.308.
On to RRIRDRPPRLPRPRPRPRAVPRP, for which the “shrunken log2 fold change” value worked out at 0.764.
As for RRIRGRPPRLPRPRPRPEGYPRP, the “shrunken log2 fold change” value stood at 0.118.
For RRIRTRPPRLPRPRPRPMDRPRP the value was -0.01; for RRIRARPPRLPRPRPRPHCGPRP, 0.507; for RRIRHRPPRLPRPRPRPENNPRP, -0.304.
For RRIRQRPPRLPRPRPRPKDAPRP the value was 0.0166; for RRIRERPPRLPRPRPRPHNRPRP, -0.0587.
For RRIRERPPRLPRPRPRPIENPRP the value was 0.0371; for RRIRHRPPRLPRPRPRPPTKPRP, 0.161; for RRIRARPPRLPRPRPRPLPQPRP, 0.64.
In the case of RRIRFRPPRLPRPRPRPDQVPRP, the “shrunken log2 fold change” value is 0.0246.
For RRIRFRPPRLPRPRPRPGHFPRP, the “shrunken log2 fold change” value is -0.24.
For RRIRPRPPRLPRPRPRPTDVPRP the value was 0.35; for RRIRFRPPRLPRPRPRPSNKPRP, -0.0849.
For RRIRNRPPRLPRPRPRPDGMPRP the value was 0.0319; for RRIRNRPPRLPRPRPRPHIIPRP, 0.0166.
For RRIRCRPPRLPRPRPRPWCGPRP the value was -0.288; for RRIRTRPPRLPRPRPRPPRCPRP, 0.391.
As to RRIRKRPPRLPRPRPRPHSAPRP, the “shrunken log2 fold change” value was 0.246.
Consider RRIRARPPRLPRPRPRPDHVPRP, for which the “shrunken log2 fold change” value is 0.0166.
For RRIRGRPPRLPRPRPRPISKPRP the value was 0.0989; for RRIRARPPRLPRPRPRPGEIPRP, 0.599.
For RRIRDRPPRLPRPRPRPRGKPRP, the “shrunken log2 fold change” value is -0.0455.
Regarding RRIRVRPPRLPRPRPRPETCPRP, the “shrunken log2 fold change” value was 0.437.
For RRIRTRPPRLPRPRPRPTDQPRP, the “shrunken log2 fold change” value is -0.143.
For RRIRLRPPRLPRPRPRPWIKPRP the value was -0.187; for RRIRPRPPRLPRPRPRPDRPPRP, -0.0807.
For RRIRERPPRLPRPRPRPRMAPRP the value was 0.2; for RRIRYRPPRLPRPRPRPLGVPRP, -0.0163.
For RRIRSRPPRLPRPRPRPGRLPRP the value was 0.00392; for RRIRERPPRLPRPRPRPDWMPRP, 0.0111; for RRIRLRPPRLPRPRPRPACWPRP, 0.498.
For the sequence RRIRLRPPRLPRPRPRPLNNPRP, the “shrunken log2 fold change” value is -0.593.
RRIRARPPRLPRPRPRPCCTPRP: the “shrunken log2 fold change” value was 0.485.
For RRIRHRPPRLPRPRPRPVTKPRP the value was -0.055; for RRIRKRPPRLPRPRPRPFKCPRP, -0.0191; for RRIRIRPPRLPRPRPRPATAPRP, 0.0897.
For RRIRCRPPRLPRPRPRPTYWPRP the value was -0.113; for RRIRRRPPRLPRPRPRPTNVPRP, -0.0322; for RRIRGRPPRLPRPRPRPLQAPRP, 1.86.
In the case of RRIRHRPPRLPRPRPRPFAGPRP, the “shrunken log2 fold change” value is -0.205.
For RRIRSRPPRLPRPRPRPFSEPRP the value was 0.00901.
For RRIRARPPRLPRPRPRPRTDPRP the value was 0.465; for RRIRERPPRLPRPRPRPRYYPRP, -0.206.
For RRIRSRPPRLPRPRPRPSPWPRP the value was -0.0643; for RRIRMRPPRLPRPRPRPLDFPRP, -0.129; for RRIRIRPPRLPRPRPRPSMFPRP, -0.801.
For RRIRWRPPRLPRPRPRPFFNPRP, the “shrunken log2 fold change” value was -0.267.
Regarding RRIRQRPPRLPRPRPRPAGLPRP, the “shrunken log2 fold change” value was -0.158.
For RRIRDRPPRLPRPRPRPRRFPRP the value was 0.212; for RRIRHRPPRLPRPRPRPMPGPRP, -0.0235.
For RRIRDRPPRLPRPRPRPRKQPRP the value was -0.0319; for RRIRIRPPRLPRPRPRPQHDPRP, -0.0884.
With RRIRGRPPRLPRPRPRPQRTPRP, the “shrunken log2 fold change” value was 0.853.
For RRIRIRPPRLPRPRPRPTQMPRP the value was 0.565; for RRIRGRPPRLPRPRPRPYLHPRP, -0.385; for RRIRWRPPRLPRPRPRPIHKPRP, -0.0298.
For RRIRGRPPRLPRPRPRPVEPPRP the value was 0.79; for RRIRERPPRLPRPRPRPKSQPRP, -0.0879.
Take RRIRSRPPRLPRPRPRPLTHPRP: the “shrunken log2 fold change” value is -0.569.
For RRIRPRPPRLPRPRPRPIASPRP the value was -0.0044; for RRIRDRPPRLPRPRPRPIKKPRP, 0.0559.
As for RRIRERPPRLPRPRPRPIYNPRP, the “shrunken log2 fold change” value was -0.85.
As to RRIRKRPPRLPRPRPRPKNLPRP, the “shrunken log2 fold change” value was 0.177.
For RRIRKRPPRLPRPRPRPLDPPRP the value was 0.613.
Take RRIRIRPPRLPRPRPRPQDTPRP: the “shrunken log2 fold change” value was -0.048.
For RRIRHRPPRLPRPRPRPGSHPRP the value was -0.226; for RRIRPRPPRLPRPRPRPWWPPRP, 0.165; for RRIRLRPPRLPRPRPRPCKFPRP, -0.463.
For RRIRERPPRLPRPRPRPPVMPRP the value was 0.0499; for RRIRGRPPRLPRPRPRPPMTPRP, 0.895; for RRIRTRPPRLPRPRPRPYDVPRP, -0.153.
RRIRFRPPRLPRPRPRPGLNPRP: the “shrunken log2 fold change” value is 0.207.
For RRIRWRPPRLPRPRPRPGSTPRP the value was 0.161.
For RRIRFRPPRLPRPRPRPQSWPRP the value was -0.0287; for RRIRQRPPRLPRPRPRPELSPRP, -0.00478; for RRIRCRPPRLPRPRPRPMMQPRP, 0.0143.
Turning to RRIRCRPPRLPRPRPRPHVPPRP, the “shrunken log2 fold change” value is -0.0309.
For RRIRQRPPRLPRPRPRPCRKPRP the value was 0.0642; for RRIRWRPPRLPRPRPRPDSNPRP, -0.189.
For the sequence RRIRDRPPRLPRPRPRPGDGPRP, the “shrunken log2 fold change” value is 0.85.
For the sequence RRIRPRPPRLPRPRPRPKYVPRP, the “shrunken log2 fold change” value is -0.132.
For RRIRWRPPRLPRPRPRPINPPRP the value was -0.247.
For RRIRSRPPRLPRPRPRPLIEPRP the value was -0.06; for RRIRQRPPRLPRPRPRPHILPRP, -0.361; for RRIRYRPPRLPRPRPRPQMAPRP, -1.66.
For RRIRVRPPRLPRPRPRPAYKPRP the value was -0.181.
Turning to RRIRYRPPRLPRPRPRPLGIPRP, the “shrunken log2 fold change” value was -0.576.
With RRIRDRPPRLPRPRPRPCGIPRP, the “shrunken log2 fold change” value was 0.0258.
For RRIRGRPPRLPRPRPRPFSSPRP the value was 0.193; for RRIRYRPPRLPRPRPRPAWCPRP, -0.0756; for RRIRIRPPRLPRPRPRPCVRPRP, -0.208.
For RRIRNRPPRLPRPRPRPYYVPRP the value was -0.207.
Regarding RRIRERPPRLPRPRPRPQYTPRP, the “shrunken log2 fold change” value is -1.16.
For RRIRPRPPRLPRPRPRPTYFPRP the value was -0.179; for RRIRWRPPRLPRPRPRPMAWPRP, -0.0156; for RRIRRRPPRLPRPRPRPQQMPRP, 0.12.
Turning to RRIRERPPRLPRPRPRPLRDPRP, the “shrunken log2 fold change” value was -0.0299.
For RRIRMRPPRLPRPRPRPTDTPRP the value was 0.227; for RRIRCRPPRLPRPRPRPYCVPRP, -0.517.
For RRIRTRPPRLPRPRPRPYQQPRP the value was 0.0675; for RRIRCRPPRLPRPRPRPRDTPRP, 0.0379.
For RRIRWRPPRLPRPRPRPDAYPRP the value was 0.309; for RRIRFRPPRLPRPRPRPWNLPRP, 0.0325; for RRIRSRPPRLPRPRPRPEGWPRP, 1.18.
On to RRIRHRPPRLPRPRPRPYNVPRP, for which the “shrunken log2 fold change” value was -0.0512.
For RRIRERPPRLPRPRPRPYALPRP the value was -0.000856; for RRIRARPPRLPRPRPRPWGKPRP, 0.0748.
On to RRIRLRPPRLPRPRPRPMCCPRP, for which the “shrunken log2 fold change” value is -0.394.
